Laboratory results from US12528864 (GlaxoSmithKline, dated 2026).
Where two headings read alike, the source gives them in different places.

Assays:
[1] = target: T1, cynomolgus monkey CD96, native, on primary cynomolgus monkey T cells (cynomolgus monkey, UniProt A0A2K5TWV6 22-569); experiment: flow cytometry on activated cynomolgus monkey T cells, donor 1
T1 construct: whole, on cells
T1 sequence: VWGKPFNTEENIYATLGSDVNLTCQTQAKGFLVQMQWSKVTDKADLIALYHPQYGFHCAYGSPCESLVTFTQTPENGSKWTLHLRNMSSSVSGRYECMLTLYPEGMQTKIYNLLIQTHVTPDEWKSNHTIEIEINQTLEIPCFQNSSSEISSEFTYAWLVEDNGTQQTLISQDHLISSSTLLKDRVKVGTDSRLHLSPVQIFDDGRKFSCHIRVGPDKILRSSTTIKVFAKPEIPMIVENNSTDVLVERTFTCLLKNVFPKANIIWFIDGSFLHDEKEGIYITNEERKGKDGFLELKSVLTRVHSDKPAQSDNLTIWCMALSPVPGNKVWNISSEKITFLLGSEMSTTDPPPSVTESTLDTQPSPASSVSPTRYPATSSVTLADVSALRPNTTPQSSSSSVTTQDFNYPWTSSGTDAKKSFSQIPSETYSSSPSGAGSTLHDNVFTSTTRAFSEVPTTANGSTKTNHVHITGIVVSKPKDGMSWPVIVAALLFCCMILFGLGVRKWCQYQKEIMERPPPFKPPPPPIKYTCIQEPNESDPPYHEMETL

[2] = target: T2, human CD96v2 expressed on cells (CHO cells; transiently transfected HEK cells) (human, UniProt P40200-2 22-569); experiment: flow cytometry on transiently transfected HEK cells (Human CD96v2)
T2 construct: whole, on cells; the cell is named under assay; also called CHO-huCD96; hCD96v2
T2 sequence (looked up): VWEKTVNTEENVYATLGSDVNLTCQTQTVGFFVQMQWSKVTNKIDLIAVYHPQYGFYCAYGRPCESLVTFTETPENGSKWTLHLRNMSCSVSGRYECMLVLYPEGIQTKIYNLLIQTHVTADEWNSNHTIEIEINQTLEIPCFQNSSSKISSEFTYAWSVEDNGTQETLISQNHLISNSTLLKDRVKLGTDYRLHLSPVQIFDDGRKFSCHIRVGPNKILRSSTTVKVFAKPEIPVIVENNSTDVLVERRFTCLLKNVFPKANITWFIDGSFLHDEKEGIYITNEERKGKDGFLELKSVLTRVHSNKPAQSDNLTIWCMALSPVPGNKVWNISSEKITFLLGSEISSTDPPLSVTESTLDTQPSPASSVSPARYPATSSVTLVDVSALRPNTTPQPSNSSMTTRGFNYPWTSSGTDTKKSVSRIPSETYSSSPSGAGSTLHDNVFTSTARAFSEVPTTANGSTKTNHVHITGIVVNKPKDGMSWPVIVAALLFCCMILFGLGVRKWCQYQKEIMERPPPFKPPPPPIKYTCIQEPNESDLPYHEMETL

[3] = target: T3, recombinant human CD96v2 (human, UniProt P40200-2 22-503, limits assumed, biotinylated (site not stated)); experiment: MSD-SET solution equilibrium titration, antibody titrated against constant biotinylated CD96, free antigen detected
T3 construct: Soluble recombinant protein used in MSD-SET; also called Biotinylated human CD96 protein
T3 sequence (looked up): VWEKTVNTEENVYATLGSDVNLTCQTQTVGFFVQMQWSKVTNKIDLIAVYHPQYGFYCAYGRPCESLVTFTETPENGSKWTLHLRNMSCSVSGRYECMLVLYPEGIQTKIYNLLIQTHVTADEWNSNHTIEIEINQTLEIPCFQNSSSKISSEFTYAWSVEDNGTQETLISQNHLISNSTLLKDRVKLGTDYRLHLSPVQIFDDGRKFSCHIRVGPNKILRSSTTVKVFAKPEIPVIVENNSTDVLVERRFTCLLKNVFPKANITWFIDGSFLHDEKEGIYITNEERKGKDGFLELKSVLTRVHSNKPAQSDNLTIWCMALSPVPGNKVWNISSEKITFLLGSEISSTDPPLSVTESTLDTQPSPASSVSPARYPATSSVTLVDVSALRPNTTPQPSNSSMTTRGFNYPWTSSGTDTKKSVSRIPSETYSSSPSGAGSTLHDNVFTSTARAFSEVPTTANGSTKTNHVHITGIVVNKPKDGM

[4] = target: T4, cynomolgus monkey CD96v1 on transiently transfected HEK cells (cynomolgus monkey); experiment: flow cytometry on transiently transfected HEK cells; lower end of range, n = 3
T4 construct: whole, on cells; also called Cyno CD96v1

[5] = target: T5, human CD96v1 on transiently transfected HEK cells (human, UniProt P40200 22-585); experiment: as above
T5 construct: whole, on cells
T5 sequence (looked up): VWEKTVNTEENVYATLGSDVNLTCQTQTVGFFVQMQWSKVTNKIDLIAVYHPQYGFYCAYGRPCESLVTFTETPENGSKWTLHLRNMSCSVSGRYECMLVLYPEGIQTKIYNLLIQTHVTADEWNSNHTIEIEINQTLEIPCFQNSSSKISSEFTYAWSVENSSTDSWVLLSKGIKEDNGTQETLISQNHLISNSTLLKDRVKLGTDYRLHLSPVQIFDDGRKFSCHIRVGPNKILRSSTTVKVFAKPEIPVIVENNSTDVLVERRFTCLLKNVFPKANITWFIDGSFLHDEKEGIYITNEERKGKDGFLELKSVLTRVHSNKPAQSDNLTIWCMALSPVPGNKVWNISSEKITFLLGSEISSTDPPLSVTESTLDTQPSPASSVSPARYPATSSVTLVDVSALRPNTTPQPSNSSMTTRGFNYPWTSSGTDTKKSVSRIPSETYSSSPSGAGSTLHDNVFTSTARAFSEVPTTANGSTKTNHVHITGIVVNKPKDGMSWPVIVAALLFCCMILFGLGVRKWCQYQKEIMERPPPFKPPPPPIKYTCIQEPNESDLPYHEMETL

[6] = target: T2, human CD96v2 expressed on cells (CHO …); experiment: as above
[7] = target: T5, human CD96v1 on transiently transfected …; experiment: flow cytometry on transiently transfected HEK cells (Human CD96v1)
[8] = target: T2, human CD96v2 expressed on cells (CHO …); experiment: flow cytometry on transiently transfected HEK cells (Human CD96v2); remark: listed apart in the source

EC50 (read off the curve) [1]: ~0.05 nM
EC50 (read off the curve) [2]: ~5 nM
IC50 (read off the curve) [3]: ~0.06 nM
EC50 [4]: 6.83 nM
EC50 [5]: 3.13 nM
EC50 [6]: 4.72 nM
EC50 (read off the curve) [7]: ~3 nM
EC50 (read off the curve) [8]: ~6 nM
B1: 42Y073-86F08-66 (antibody)
heavy: not shown
light: DIQLTQSPSSLSASVGDRVTITCRASQSISSYLNWYQQKPGKAPKLLIYAASSLQSGVPSRFSGSGSGTDFTLTISSLQPEDFATYYCQQVLHTITFGGGTKVEIKRTVAAPSVFIFPPSDEQLKSGTASVVCLLNNFYPREAKVQWKVDNALQSGNSQESVTEQDSKDSTYSLSSTLTLSKADYEKHKVYACEVTHQGLSSPVTKSFNRGEC
notes: also called GSK 6097608; GSK6097608
